# Results published in patent publication US20190263934A1.
# Experiments:
# [1] = target: biotinylated human FcRn (hFcRn; p51 subunit residues 24-297 with C-terminal Avi-tag, β2-m residues 21-119) (human) (UniProt P55899); experiment: Biacore SPR, pH 6.0, apparent affinity
# [2] = target: biotinylated human FcRn (hFcRn; p51 subunit residues 24-297 with C-terminal Avi-tag, β2-m residues 21-119) (human) (UniProt P55899); experiment: Biacore SPR, pH 7.4, steady state, 1000 nM antibody
# [3] = target: biotinylated human FcRn (hFcRn; p51 subunit residues 24-297 with C-terminal Avi-tag, β2-m residues 21-119) (human) (UniProt P55899); experiment: Biacore SPR; second ratio column (inverse of c7)
# [4] = target: biotinylated human FcRn (hFcRn; p51 subunit residues 24-297 with C-terminal Avi-tag, β2-m residues 21-119) (human) (UniProt P55899); experiment: Biacore SPR; pH 6.0 affinity (M^-1) over pH 7.4 steady state RU
# rFcRn (rat) [5] = target: rFcRn (rat) (UniProt P13599); experiment: SPR Biacore, pH 7.4
# Chain of rFcRn (rat) (P13599 23-298 limits assumed, form in doubt, chain 1 of 2): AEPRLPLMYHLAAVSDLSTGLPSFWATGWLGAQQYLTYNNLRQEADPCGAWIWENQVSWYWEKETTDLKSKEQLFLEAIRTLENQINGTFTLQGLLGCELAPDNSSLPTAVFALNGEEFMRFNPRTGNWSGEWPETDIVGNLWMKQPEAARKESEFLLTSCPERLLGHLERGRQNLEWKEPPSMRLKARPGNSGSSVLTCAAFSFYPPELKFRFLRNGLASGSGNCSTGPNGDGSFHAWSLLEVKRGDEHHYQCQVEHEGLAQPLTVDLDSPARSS
# Chain of rFcRn (rat) (P07151 21-119 limits assumed, form in doubt, chain 2 of 2, further chain): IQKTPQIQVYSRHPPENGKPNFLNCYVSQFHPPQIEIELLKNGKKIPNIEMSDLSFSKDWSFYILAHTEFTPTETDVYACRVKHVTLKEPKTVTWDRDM
# [6] = target: biotinylated hFcRn (human) (UniProt P55899); experiment: SPR Biacore, pH 7.4
# Chain of biotinylated hFcRn (human) (P55899 24-297 limits assumed, form in doubt, chain 1 of 2): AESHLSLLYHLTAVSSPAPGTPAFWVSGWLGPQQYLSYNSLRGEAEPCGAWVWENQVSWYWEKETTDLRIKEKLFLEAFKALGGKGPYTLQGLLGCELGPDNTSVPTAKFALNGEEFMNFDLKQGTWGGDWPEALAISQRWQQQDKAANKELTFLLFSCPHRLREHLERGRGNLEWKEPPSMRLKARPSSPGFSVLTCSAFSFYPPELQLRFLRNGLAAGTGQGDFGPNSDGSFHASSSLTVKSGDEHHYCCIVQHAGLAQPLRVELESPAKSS
# Chain of biotinylated hFcRn (human) (P61769 21-119 limits assumed, form in doubt, chain 2 of 2, further chain): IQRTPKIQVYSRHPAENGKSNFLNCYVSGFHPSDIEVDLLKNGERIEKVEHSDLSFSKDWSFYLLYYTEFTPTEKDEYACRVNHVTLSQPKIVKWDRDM
# rFcRn (rat) [7] = target: rFcRn (rat) (UniProt P13599); experiment: SPR Biacore, pH 6.0
# [8] = target: biotinylated hFcRn (human) (UniProt P55899); experiment: SPR Biacore, pH 6.0
# Chain of biotinylated human FcRn (hFcRn; p51 subunit residues 24-297 with C-terminal Avi-tag, β2-m residues 21-119) (human) (P55899 24-297, form in doubt, chain 1 of 2): as the sequence (P55899 24-297 limits assumed, form in doubt, chain 1 of 2) above
# Chain of biotinylated human FcRn (hFcRn; p51 subunit residues 24-297 with C-terminal Avi-tag, β2-m residues 21-119) (human) (P61769 21-119, form in doubt, chain 2 of 2, further chain): as the sequence (P61769 21-119 limits assumed, form in doubt, chain 2 of 2, further chain) above
Substance,Ka [1] [M⁻¹],"Steady State Binding, pH 7.4 (RU) [2] [RU]",Ratio (pH 6.0/pH 7.4) [3],Ratio (pH 6.0/pH 7.4) [4],other results
mAb1 AAA variant (T307A/E380A/N434A) (antibody),562000,13.9,2.47e-05,40400,
mAb1 LS variant (M428L/N434S) (antibody),3.68e+06,18.3,4.97e-06,201000,
mAb1 M252Y/N434F (antibody),,,,,Steady State RU (rFcRn (rat) [5]): 79.3 RU; Steady State RU [6]: 43.8 RU; Kd (rFcRn (rat) [7]): 0.29 nM; koff (rFcRn (rat) [7]): 0.00012 s⁻¹; kon (rFcRn (rat) [7]): 403000 M⁻¹ s⁻¹; Kd [8]: 18 nM; koff [8]: 0.023 s⁻¹; kon [8]: 1.27e+06 M⁻¹ s⁻¹
mAb1 M252Y/N434Y (antibody),,,,,Steady State RU (rFcRn (rat) [5]): 67.9 RU; Steady State RU [6]: 54.1 RU; Kd (rFcRn (rat) [7]): 0.26 nM; koff (rFcRn (rat) [7]): 0.00014 s⁻¹; kon (rFcRn (rat) [7]): 540000 M⁻¹ s⁻¹; Kd [8]: 8.32 nM; koff [8]: 0.0171 s⁻¹; kon [8]: 2.06e+06 M⁻¹ s⁻¹
mAb1 M252Y/T256E (antibody),,,,,Steady State RU (rFcRn (rat) [5]): 55.1 RU; Steady State RU [6]: 9.8 RU; Kd (rFcRn (rat) [7]): 8.43 nM; koff (rFcRn (rat) [7]): 0.00273 s⁻¹; kon (rFcRn (rat) [7]): 324000 M⁻¹ s⁻¹; Kd [8]: 128 nM; koff [8]: 0.0757 s⁻¹; kon [8]: 592000 M⁻¹ s⁻¹
mAb1 M252Y/T307Q (antibody),,,,,Steady State RU (rFcRn (rat) [5]): 49.2 RU; Steady State RU [6]: 10.6 RU; Kd (rFcRn (rat) [7]): 4.11 nM; koff (rFcRn (rat) [7]): 0.00105 s⁻¹; kon (rFcRn (rat) [7]): 255000 M⁻¹ s⁻¹; Kd [8]: 278 nM; koff [8]: 0.096 s⁻¹; kon [8]: 345000 M⁻¹ s⁻¹
mAb1 M252Y/T307W (antibody),,,,,Steady State RU (rFcRn (rat) [5]): 66.1 RU; Steady State RU [6]: 15.9 RU; Kd (rFcRn (rat) [7]): 5.21 nM; koff (rFcRn (rat) [7]): 0.00109 s⁻¹; kon (rFcRn (rat) [7]): 208000 M⁻¹ s⁻¹; Kd [8]: 118 nM; koff [8]: 0.057 s⁻¹; kon [8]: 483000 M⁻¹ s⁻¹
mAb1 MDQF variant (T256D/T307Q/N434F) (antibody),6.62e+06,55.3,,120000,Ratio (pH 7.4/pH 6.0) [3]: 8.35e-06
mAb1 MDQN variant (T256D/T307Q) (antibody),4.31e+06,10.7,2.48e-06,403000,
mAb1 MDQY variant (T256D/T307Q/N434Y) (antibody),3.69e+07,49.4,,747000,Ratio (pH 7.4/pH 6.0) [3]: 1.34e-06
mAb1 MDTF variant (T256D/N434F) (antibody),3.34e+07,29.2,8.74e-07,1.14e+06,
mAb1 MDTY variant (T256D/N434Y) (antibody),6.41e+07,37.1,5.79e-07,1.73e+06,
mAb1 MDWF variant (T256D/T307W/N434F) (antibody),2.81e+07,47.1,,597000,Ratio (pH 7.4/pH 6.0) [3]: 1.68e-06
mAb1 MDWN variant (T256D/T307W) (antibody),5.92e+06,12.2,2.06e-06,485000,
mAb1 MEQF variant (T256E/T307Q/N434F) (antibody),142000,,,,
mAb1 MEQN variant (T256E/T307Q) (antibody),2e+06,,,,
mAb1 MEQY variant (T256E/T307Q/N434Y) (antibody),2.38e+07,38.6,,617000,Ratio (pH 7.4/pH 6.0) [3]: 1.62e-06
mAb1 METF variant (T256E/N434F) (antibody),1.28e+07,23.3,1.82e-06,549000,
mAb1 METY variant (T256E/N434Y) (antibody),1.6e+07,26.8,1.68e-06,597000,
mAb1 MEWF variant (T256E/T307W/N434F) (antibody),5.62e+07,41.9,,1.34e+06,Ratio (pH 7.4/pH 6.0) [3]: 7.46e-07
mAb1 MEWN variant (T256E/T307W) (antibody),3.1e+06,,,,
mAb1 MEWY variant (T256E/T307W/N434Y) (antibody),7.04e+07,46.6,,1.51e+06,Ratio (pH 7.4/pH 6.0) [3]: 6.62e-07
mAb1 MTQF variant (T307Q/N434F) (antibody),2.33e+07,34.2,1.47e-06,681000,
mAb1 MTQY variant (T307Q/N434Y) (antibody),3.09e+07,38.4,1.24e-06,805000,
